The text below walks through data of the nanobody polyreactivity screen of Harvey et al. (2022).

This series can be described thus: yeast display, Sf9 membrane polyspecificity reagent, FACS + sequencing; frameworks hold sequencing errors. The procedure, abridged: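 Using colony PCR, genes from sorted yeast display clones were amplified, then sequenced on MiSeq at 2 × 250 and filtered by CDR length. The clones had been stained with 10% biotinylated, detergent-solubilized Sf9 membrane reagent for 1 hour at 4 °C and sorted by FACS into low and high (top ~1%) gates on anti-HA and streptavidin fluorescence. Polyreactivity labels come from the gate of origin.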
As to “QVQLVESGGGLVQAGGRLRLSGAASGLIFTTYAMGWSRQAPGKVRELVAAISSSGDSTYYADSVKGRFTISRDNAKNTVYLQMNSLKPEDTAVYYRAARYYYRGYEFGYWGQGTQVTVSS”, the “polyreactivity (PSR sort gate)” value is reported as “high polyreactivity”.
For the sequence “QVQLVESGGGLVQAGGRLRRICAASGRIYSRYTMGWYRQAPGKERQLVAVITSGGSTYYADSVKGRFTISRDNAKNTVYLQMNSLKPDDTAVYYCNAVRFTYGGYLRRYDYWGHGTQVTVSS”, the “polyreactivity (PSR sort gate)” value is “high polyreactivity”.
In the case of “QVQLVESGGGLVQAGGRRRLSCAASGSTYNPYPMGWYRQAPGKERELLATITWRGTSTYYADSVKGRFTISRDNAKYTVYLQMNSLKPEDTAVYYGAKGFVYNYPKTYKSYSTYYYWGQGTQVTVSS” it was “high polyreactivity”; in that of “QVQLVESGGGLVQAGGSDRLSCAASGSIIDYYAMGWYRQAPGKERELVADITVTGDGTYYADSVKGRFTISRDNAKNTVYLQMNSLKPEDTAVYYCAAAGVYYGVRGTTYAYDYWGQGTQVTVSS”, “low polyreactivity”.
In the case of “QVQLVESGGGLVQAGGSFRLSCAASGFTLYGNAMGWSRQAPGNDRELVATIRSTGSTTYADSVKGRFTISRDNAKNTVYLQMNSLKPEDTAVHYCAKVSTYGGRHRWPGSIYDYWGQGTQVTVSS” it was “low polyreactivity”.
Next, “QVQLVESGGGLVQAGGSFRLSCAASGSIFDGYAMGWYRQAPGTERELVAAISSGGDSTYYADSVKGRFTISRDNAKNTVYLQMNSLKPEDTAVYYCNADSLVGHSYDYWGQGTQVTVSS”: “low polyreactivity”; “QVQLVESGGGLVQAGGSFRLSCAASGSIFVVYAMGWYRQAPGKERELVAAITSGGSTYYADSVKGRFTISRDNAKNTVYLQMNSLKPEDTAVYYCATTYRDGVYELTTFDYWGQGTQVTVSS”: “low polyreactivity”.
In the case of “QVQLVESGGGLVQAGGSFRLSSAPSGSIFVVYAMGGYIQAPGKERELVAAITSGGSTYYADSVKGRFTISRDNAKNTVYLQMNSLKPEDTAVYYCATTYRDGVYELSTFDYWGQGTQVTVSS”, the “polyreactivity (PSR sort gate)” value was “low polyreactivity”.
For the sequence “QVQLVESGGGLVQAGGSHRFSCAASGFTFGHDTMGWYRQAPGKERELVAAITWRGGTYYADSEKGRFTISRDNAMNTVYLQMNSMKPEDTAVYYCAKRRASRYYWGQGTQVTVSS”, the “polyreactivity (PSR sort gate)” value is recorded as “high polyreactivity”.
In the case of “QVQLVESGGGLVQAGGSHRLICAASGFNFYIYAMGWYRQAPGKERELVAAISWNGGSTYYADSVKGRFTISRDIAKNTVYLQMNSLKPEDTAVYYCAARHYYFYYHGYVKYDYWGQGTQVTVSS” it was “high polyreactivity”.
Regarding “QVQLVESGGGLVQAGGSHRLSCAASGFIFRRNAMGWYRQAPGKERELVAAITKSGGSTYYADSVKGRFTISRDNAKNTVYLQMNSLKPEDTAVYYCAAKRQTGQSYYWGQGTQVTVSS”, the “polyreactivity (PSR sort gate)” value is reported as “high polyreactivity”.
As to “QVQLVESGGGLVQAGGSHRLSCAASGFTFIGYPMGWYRQAPGKERELVAAITQSGGSTFYADSVKGRFTISRDNAKNTVYLHMNSLKPEDTAVYYCNAYRKFRYWGHGTQVTVSS”, the “polyreactivity (PSR sort gate)” value is “low polyreactivity”.
Next, “QVQLVESGGGLVQAGGSHRLSCAASGIIIEGNVMGWSRQSPGKQSELVAAITSDTSTNYGDSVKGRFTISRDNATNTVYLQMNSLKPEDTGVYYCNAVIGTDYFYSGTAEFYYWGQGTQVTVSS”: “low polyreactivity”; “QVQLVESGGGLVQAGGSHRLSCAASGITFPYYAMGCYRQAPVKERELVAAISSSGGSTYYADSVKGRFTISRDNAKNTVYLQMNSLKPEDTAVYYCNKRYVVYPGNYWRYDYWGQGTQVTVSS”: “high polyreactivity”; “QVQLVESGGGLVQAGGSHRLSCAASGLIIGYYDMGWYRQAPGQERELVAAITQSSGSTYYADSVKGRFTISRDNAKNTVYLQMNRLKREDTAVYYCARRKWKFADNYKLDYWGQGTQVTVSS”: “low polyreactivity”.
On to “QVQLVESGGGLVQAGGSHRLSCAASGLTLYQYTMGWYRQAPGKERELVAAITTSGSTYYADSVKGRFTISRDNEKNTVYLQMNSLKPEDTAVYYCAAVVYYVDTLSGYRYGYDYWGQCTQVTVSS”, for which the “polyreactivity (PSR sort gate)” value is “low polyreactivity”.
As to “QVQLVESGGGLVQAGGSHRLSCAASGRIFGRNAMGCYRQAPGKERELVATITSGGGTNYADSVKGRFTISRDNAKNTVYLQMNSLKPEDTAVYYCAATVAILRKFWMDYWGQGTQVTVSS”, the “polyreactivity (PSR sort gate)” value is “low polyreactivity”.
Next, “QVQLVESGGGLVQAGGSHRLSCAASGRIFRVYVMGWYRQAPGKEREFVAAISRRGSRTYADSVKGRFTISRDNAKNTVYLLMNSLKTEDTAVYYWAAECGYQAHPGQGDYWGQGTQVTVSS”: “high polyreactivity”; “QVQLVESGGGLVQAGGSHRLSCAASGRIFVGYAMGWYRQAPGKERELVAGISGGGRTNYADSVKGRFTISRDNAKNTVYLQMNSLKPEDTAVYYCIAGGSVWYRSQRGWKGYYNQMDYWGQGTQVTVSS”: “high polyreactivity”.
In the case of “QVQLVESGGGLVQAGGSHRLSCAASGRIIESYAMGWYRQAPGKERELVAAISSNDGSTYYADSVKGRFTISRDNAKNTVYLQMNSLKPEDTAVYDCAAELGQVDYGGPSYDYWGQGTQVTVSS” it was “low polyreactivity”; in that of “QVQLVESGGGLVQAGGSHRLSCAASGRLFRYYDMGWYRQAPGKERELVARISSTGRTYADSVMGRFTISRDNAKNTVYLQMNSLKPVDTAVYYCAALFHTRGHSKYDYWGQGTQVTVSS”, “high polyreactivity”; in that of “QVQLVESGGGLVQAGGSHRLSCAASGRTFGHNAMGWYRQAPGKEMEFVASIRSGGITDYADSVKGRFTISRDNAKNTVYLQMNSLKPEDTAVYYCAADVLDWYDLLRDDYWGQGTQVTVSS”, “low polyreactivity”.
In the case of “QVQLVESGGGLVQAGGSHRLSCAASGRTFWYNAMGWYRQAPGKERELVAAITSGDSTNYADSVKGRFTISRDNAKNTVYLQMNSLKPEVTAAYYCAAEGRPNWYYWAEGYYWGQGTQVTVSS” it was “high polyreactivity”; in that of “QVQLVESGGGLVQAGGSHRLSCAASGRTFYINAMGWYRQAPGKERELVAAISIRGGGTYYADSVKGRFTISRDNAKNTVYLQMNSLKPEDTAVYYCAAEYTEGYTHDYWGQGTQVTVSS”, “low polyreactivity”; in that of “QVQLVESGGGLVQAGGSHRLSCAASGRTFYYNAMGVYRQAPGKERELVAGITRSGSSTYYADSVKGRFTISRVNAKNTVYLQMNSLKPEDTAVYYCATRRSGYYSFYYWGQGTQVTVSS”, “high polyreactivity”.
With “QVQLVESGGGLVQAGGSHRLSCAASGSTFEYNDMGGNRQEQGKERELVAAISSGGDTNYADSVKGRFTISRDNAKNTVFLQMNSLKPEDTAVYYCAADDWSPYLCYYGYAGYYYCGQGTQVTVSS”, the “polyreactivity (PSR sort gate)” value was “low polyreactivity”.
Next, “QVQLVESGGGLVQAGGSHRLSCAASGSTFGDYAMGWYRQAPGKERELVAAISVRGGSTYYADSVKGRFTISRDNAKNTVYLQMNSLKPVVTAVYYCNKDLYRYPGYDYWGQGTQVTVSS”: “high polyreactivity”; “QVQLVESGGGLVQAGGSHRLSCAASGSTFIDYAMGWYRQAPGKERELVAAITNGGNTKYADSVKGRFTISRDNAKNTVYLQMNSLKPEDTAVYYCAREPSIFTPSYDYWGQGTQVTVSS”: “low polyreactivity”; “QVQLVESGGGLVQAGGSHRLSCAASGSTFRVYAMGGYRQAPGKERELVARISITGGTTRYADSVKGRFTISRDNAKNTVYLQMNSLKPEDTAVYYCNADYDWYYWYLYKYPFDYWGQGTQVTVSS”: “low polyreactivity”.
Consider “QVQLVESGGGLVQAGGSHRLSCAASGSTRYYMGWYRQAPGKEREFVARITWSGTRTYYADSVKGRFTISRDNAKNTVYLQMNSLKPEDTAVYYCNAGVVWGQGTQVTVSS”, for which the “polyreactivity (PSR sort gate)” value was “high polyreactivity”.
Next, “QVQLVESGGGLVQAGGSHRLSCAASGYIFRYSTMGWYRQAPGKERELVAVITRGGSTYYADSVKGRFTISRDNAKNTVYLQMTSLNPEDTAVYYCAAVRTKVWRGPEMDYWGQCTQVTVSS”: “high polyreactivity”; “QVQLVESGGGLVQAGGSHRLSCAAYGRTFGVYAMGWYRQAPGKERELVAAISSRGGSTYYADSVKGRFTISRDNAKNSVYLQMNSLKPEDTAFYYCAAPWYQGLDYWGQGTQVTVSS”: “high polyreactivity”; “QVQLVESGGGLVQAGGSHRLSCAAYGSTFFPNCMGWYRQAPGKERELVAAITSGGSTYADSVKGRFTISRDNAKNTVYLQMNSLKQEDTAFYYCAADSRQGFLLYGYWGQATQVTVSS”: “low polyreactivity”.
Next, “QVQLVESGGGLVQAGGSHRLSCADSGFILAYYAMGWYRPAPGKERELVAAISIGSSTDYADSVKGRFTISRDNAKNTVYLQMNSLKPEDTAVYYCAARDYYYEYDYWGQGTQVTVSS”: “low polyreactivity”; “QVQLVESGGGLVQAGGSHRLSFAASGGIFRGYALGWNRQAPGKERELGATIRSSGRTNYADSVKGRFTIARDNAKNTVYLQMNCLKPDDTAVYYCNKRRWWQYDRWSDWVLGGDDYWGQGTQLTVSS”: “low polyreactivity”; “QVQLVESGGGLVQAGGSHRLSSAASGLTFGGNAMGWYRQAPGKERELVAGISSSGNTNYADSVKGRFTISRDNAKNTVYLQMNSLKPEDTAVYYCAADENITYPVYDMYDWGQGTQVTVSS”: “low polyreactivity”.
In the case of “QVQLVESGGGLVQAGGSHRLSSAASGTTFYGNAMGWYRQAPGKERELVAAISQGGGRTYYADSVKGRFTISRDIAKNTVYLQMISLKPEDTAVYYCAADVWWYRLDFDYWGQGTQVTVSS” it was “high polyreactivity”; in that of “QVQLVESGGGLVQAGGSHRLTCAASGSTFFAYAIGCYRPAPGTERELVAAISSRGGRTYYADSVKGRFTISRDNAQNTVYLQMNSLKPEDTAVYYCAVGPGLAQSYDYWGQGTQVTVSS”, “high polyreactivity”.
As to “QVQLVESGGGLVQAGGSHRVSCAASGSTFDRYTMGWYRQAPGTERELVAAISISGGSTYYADSVKGRFTISRDNAKNTVYVQMNSLKPEDTAVYYCAARLDTVTDYYYWGQGTQVNVSS”, the “polyreactivity (PSR sort gate)” value is recorded as “low polyreactivity”.
In the case of “QVQLVESGGGLVQAGGSHSLRCAASGSIFYRYDRGWYRQAPGTARELVAAITRSGGSTYYADSVKGRFTISRDNAKNTVYLQMNSLKPEDTAVYFCNASIDRYRLLIFPRPYWKYAYWGQGTQVTVSS” it was “low polyreactivity”.
